Values quoted from earlier work in PMC12990809.

Legend:
Assay in all cases: pulldown
Conditions in all cases: 20 nM protein, 1.5 uM RNA pool; 20 mM HEPES pH 7.8, 70 mM KCl, 10 mM NaCl, 10% glycerol, 2 mM DTT, 0.1 ug/uL BSA; 30 min, 4 C (protocol of this paper; not …); cited from earlier work
A2BP1 (Homo sapiens) = molecular target: T1, A2BP1 (Homo sapiens) (UniProt Q9NWB1)
T1 sequence: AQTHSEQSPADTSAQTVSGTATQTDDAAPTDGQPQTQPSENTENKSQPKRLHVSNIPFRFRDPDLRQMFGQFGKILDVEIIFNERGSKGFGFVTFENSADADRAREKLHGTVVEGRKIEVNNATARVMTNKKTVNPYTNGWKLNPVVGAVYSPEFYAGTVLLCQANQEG

[1] = molecular target: T2, mec-8 (Caenorhabditis elegans) (UniProt G5ECJ4)
T2 sequence: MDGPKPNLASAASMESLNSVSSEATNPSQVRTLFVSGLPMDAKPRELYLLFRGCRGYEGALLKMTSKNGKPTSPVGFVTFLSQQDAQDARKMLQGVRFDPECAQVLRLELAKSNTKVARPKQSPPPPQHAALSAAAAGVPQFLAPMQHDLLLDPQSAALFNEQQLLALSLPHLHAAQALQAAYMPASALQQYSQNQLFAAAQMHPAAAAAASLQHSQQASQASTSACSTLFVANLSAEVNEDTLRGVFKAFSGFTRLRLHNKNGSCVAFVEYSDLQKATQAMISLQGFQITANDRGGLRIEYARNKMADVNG

[2] = molecular target: T3, exc-7 (Caenorhabditis elegans) (UniProt Q20084)
T3 sequence: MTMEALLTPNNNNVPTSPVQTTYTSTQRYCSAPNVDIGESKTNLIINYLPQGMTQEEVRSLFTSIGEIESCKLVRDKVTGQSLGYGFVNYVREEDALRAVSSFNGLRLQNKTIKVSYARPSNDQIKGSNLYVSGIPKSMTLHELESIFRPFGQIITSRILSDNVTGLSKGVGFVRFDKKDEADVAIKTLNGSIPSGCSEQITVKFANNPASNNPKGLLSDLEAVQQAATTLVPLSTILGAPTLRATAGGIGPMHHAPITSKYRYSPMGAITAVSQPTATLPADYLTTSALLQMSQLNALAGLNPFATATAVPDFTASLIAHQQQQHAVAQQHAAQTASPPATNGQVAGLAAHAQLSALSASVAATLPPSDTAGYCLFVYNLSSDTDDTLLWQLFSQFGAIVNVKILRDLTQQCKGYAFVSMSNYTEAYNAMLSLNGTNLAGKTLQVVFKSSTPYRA

CELF5 (Homo sapiens) = CELF5 (Homo sapiens) (UniProt Q8N6W0)
Chain of CELF5 (Homo sapiens) (Q8N6W0 whole entry): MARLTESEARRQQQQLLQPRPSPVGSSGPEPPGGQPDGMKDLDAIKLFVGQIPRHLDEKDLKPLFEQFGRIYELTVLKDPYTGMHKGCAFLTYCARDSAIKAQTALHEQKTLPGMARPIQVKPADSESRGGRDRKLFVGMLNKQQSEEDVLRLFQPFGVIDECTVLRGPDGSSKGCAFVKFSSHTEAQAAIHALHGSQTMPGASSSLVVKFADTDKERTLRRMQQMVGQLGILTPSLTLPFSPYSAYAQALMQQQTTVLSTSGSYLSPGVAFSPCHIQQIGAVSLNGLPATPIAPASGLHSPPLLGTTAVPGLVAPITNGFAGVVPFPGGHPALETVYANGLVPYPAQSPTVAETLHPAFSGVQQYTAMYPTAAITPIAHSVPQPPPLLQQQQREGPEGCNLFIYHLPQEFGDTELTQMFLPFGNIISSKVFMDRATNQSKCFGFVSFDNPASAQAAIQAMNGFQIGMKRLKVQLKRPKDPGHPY

DAZAP1 (Homo sapiens) = molecular target: T4, DAZAP1 (Homo sapiens) (UniProt Q96EP5)
T4 sequence: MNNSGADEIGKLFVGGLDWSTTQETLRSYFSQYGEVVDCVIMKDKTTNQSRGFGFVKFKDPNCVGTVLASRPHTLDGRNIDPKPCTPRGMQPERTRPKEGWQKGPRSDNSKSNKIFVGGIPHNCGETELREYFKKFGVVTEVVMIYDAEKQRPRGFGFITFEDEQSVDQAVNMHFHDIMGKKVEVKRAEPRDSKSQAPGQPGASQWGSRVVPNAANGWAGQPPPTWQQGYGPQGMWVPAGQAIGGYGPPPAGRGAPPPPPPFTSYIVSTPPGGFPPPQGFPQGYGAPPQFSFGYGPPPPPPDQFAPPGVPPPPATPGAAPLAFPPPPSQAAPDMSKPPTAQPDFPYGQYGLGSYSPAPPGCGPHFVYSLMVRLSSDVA

RBM24 (Homo sapiens) = molecular target: T5, RBM24 (Homo sapiens) (UniProt Q9BX46)
T5 sequence: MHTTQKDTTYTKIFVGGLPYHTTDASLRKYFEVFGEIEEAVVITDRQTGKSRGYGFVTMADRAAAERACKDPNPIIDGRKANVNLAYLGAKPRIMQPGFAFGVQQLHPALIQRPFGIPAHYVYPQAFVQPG

[3] = molecular target: T6, PF10_0068 (Plasmodium falciparum) (UniProt Q8IJX3)
T6 sequence: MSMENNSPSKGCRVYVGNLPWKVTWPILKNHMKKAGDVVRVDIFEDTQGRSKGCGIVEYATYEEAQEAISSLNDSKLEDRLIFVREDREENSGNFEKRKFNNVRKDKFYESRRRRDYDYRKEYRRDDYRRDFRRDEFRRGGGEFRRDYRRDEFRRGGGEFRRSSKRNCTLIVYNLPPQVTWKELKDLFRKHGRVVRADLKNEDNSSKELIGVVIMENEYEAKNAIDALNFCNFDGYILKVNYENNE

[4] = molecular target: T7, sup-12 (Caenorhabditis elegans) (UniProt O45189)
T7 sequence: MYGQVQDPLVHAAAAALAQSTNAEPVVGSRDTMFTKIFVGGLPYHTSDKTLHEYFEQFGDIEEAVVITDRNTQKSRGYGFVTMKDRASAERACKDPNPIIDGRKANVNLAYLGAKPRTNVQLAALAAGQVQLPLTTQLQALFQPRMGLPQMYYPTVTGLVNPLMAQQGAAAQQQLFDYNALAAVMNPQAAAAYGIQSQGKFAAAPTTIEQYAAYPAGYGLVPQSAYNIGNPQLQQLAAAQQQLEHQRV

PABPC5 (Homo sapiens) = PABPC5 (Homo sapiens) (UniProt Q96DU9)
Chain of PABPC5 (Homo sapiens) (Q96DU9 whole entry): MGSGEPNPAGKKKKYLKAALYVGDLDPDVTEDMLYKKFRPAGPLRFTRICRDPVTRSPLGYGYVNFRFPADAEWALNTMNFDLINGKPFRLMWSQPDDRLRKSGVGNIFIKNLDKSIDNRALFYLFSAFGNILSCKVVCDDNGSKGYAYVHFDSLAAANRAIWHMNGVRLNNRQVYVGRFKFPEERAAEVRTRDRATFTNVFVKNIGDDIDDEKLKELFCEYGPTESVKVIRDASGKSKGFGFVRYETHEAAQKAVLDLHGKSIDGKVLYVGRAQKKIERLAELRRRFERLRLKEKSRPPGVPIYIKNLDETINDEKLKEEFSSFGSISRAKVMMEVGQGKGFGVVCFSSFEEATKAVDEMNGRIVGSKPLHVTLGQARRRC

KHDRBS1 (Homo sapiens) = KHDRBS1 (Homo sapiens) (UniProt Q07666)
Chain of KHDRBS1 (Homo sapiens) (Q07666 107-291): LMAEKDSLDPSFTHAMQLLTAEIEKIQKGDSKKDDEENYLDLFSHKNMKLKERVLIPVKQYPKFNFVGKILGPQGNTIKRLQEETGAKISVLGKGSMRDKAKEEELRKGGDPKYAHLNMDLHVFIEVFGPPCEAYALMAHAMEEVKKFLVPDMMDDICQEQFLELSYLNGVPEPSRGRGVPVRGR

[5] = molecular target: T8, etr-1 (Caenorhabditis elegans) (UniProt A8DYS0)
T8 sequence: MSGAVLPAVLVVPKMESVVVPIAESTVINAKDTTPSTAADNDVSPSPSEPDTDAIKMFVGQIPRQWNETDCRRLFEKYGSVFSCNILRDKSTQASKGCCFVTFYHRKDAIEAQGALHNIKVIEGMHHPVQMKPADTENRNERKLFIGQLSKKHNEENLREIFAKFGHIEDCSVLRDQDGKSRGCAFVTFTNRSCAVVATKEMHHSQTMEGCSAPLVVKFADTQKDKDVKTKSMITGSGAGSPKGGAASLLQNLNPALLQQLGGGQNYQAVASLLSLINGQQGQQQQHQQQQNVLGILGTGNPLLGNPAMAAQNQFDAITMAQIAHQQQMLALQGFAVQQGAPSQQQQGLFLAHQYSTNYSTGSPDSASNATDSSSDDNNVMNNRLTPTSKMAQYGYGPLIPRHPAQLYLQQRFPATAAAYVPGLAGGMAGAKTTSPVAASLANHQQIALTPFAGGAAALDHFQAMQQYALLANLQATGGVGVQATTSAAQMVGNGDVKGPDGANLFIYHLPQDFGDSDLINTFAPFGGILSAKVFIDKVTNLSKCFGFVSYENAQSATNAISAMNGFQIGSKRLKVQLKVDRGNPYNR

[6] = molecular target: T9, sup-26 (Caenorhabditis elegans) (UniProt D5MCR3)
T9 sequence: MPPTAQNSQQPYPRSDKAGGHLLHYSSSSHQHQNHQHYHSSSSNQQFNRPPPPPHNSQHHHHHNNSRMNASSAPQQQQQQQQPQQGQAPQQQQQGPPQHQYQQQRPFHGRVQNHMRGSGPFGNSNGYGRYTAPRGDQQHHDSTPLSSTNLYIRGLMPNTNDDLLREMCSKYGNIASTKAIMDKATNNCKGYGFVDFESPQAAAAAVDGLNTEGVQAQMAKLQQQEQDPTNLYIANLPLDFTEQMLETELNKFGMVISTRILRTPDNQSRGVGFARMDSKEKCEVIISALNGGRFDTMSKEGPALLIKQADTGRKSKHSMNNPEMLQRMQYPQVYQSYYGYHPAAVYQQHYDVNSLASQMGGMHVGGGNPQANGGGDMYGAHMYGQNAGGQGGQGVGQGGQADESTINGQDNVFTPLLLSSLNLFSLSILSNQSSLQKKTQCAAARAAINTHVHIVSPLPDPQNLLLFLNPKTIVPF

KHDRBS2 (Homo sapiens) = molecular target: T10, KHDRBS2 (Homo sapiens) (UniProt Q5VWX1)
T10 sequence: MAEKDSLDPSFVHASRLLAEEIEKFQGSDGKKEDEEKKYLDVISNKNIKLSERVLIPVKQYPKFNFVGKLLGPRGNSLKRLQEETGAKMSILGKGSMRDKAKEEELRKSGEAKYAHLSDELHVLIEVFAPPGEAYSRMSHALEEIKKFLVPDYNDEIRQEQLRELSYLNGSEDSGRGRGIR

HNRNPLL (Homo sapiens) = molecular target: T11, HNRNPLL (Homo sapiens) (UniProt Q8WVV9)
T11 sequence: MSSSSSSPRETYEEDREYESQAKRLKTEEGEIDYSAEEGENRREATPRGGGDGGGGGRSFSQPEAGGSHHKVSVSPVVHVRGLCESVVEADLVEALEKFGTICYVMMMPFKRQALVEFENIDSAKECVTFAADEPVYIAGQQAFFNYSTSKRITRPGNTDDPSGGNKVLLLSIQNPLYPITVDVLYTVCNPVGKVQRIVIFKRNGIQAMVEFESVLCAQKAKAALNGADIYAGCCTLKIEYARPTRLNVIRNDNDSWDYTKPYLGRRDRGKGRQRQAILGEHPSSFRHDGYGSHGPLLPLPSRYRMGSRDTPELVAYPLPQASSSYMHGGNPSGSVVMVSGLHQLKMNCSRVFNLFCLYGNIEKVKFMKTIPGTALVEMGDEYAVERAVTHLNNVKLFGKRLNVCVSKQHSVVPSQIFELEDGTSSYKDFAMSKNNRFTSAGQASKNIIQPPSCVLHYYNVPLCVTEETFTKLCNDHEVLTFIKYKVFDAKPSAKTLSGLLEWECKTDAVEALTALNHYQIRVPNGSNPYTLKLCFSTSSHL

PCBP1 (Homo sapiens) = PCBP1 (Homo sapiens) (UniProt Q15365)
Chain of PCBP1 (Homo sapiens) (Q15365 whole entry): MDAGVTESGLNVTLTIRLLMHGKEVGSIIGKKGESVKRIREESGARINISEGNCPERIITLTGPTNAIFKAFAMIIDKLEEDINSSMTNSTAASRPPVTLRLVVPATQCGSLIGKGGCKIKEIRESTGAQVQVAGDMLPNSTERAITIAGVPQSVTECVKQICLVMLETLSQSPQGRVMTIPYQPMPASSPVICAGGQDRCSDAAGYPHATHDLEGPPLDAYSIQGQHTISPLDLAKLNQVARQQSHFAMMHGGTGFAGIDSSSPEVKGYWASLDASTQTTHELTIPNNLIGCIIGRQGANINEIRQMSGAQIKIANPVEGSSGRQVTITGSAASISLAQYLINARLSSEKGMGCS

CELF6 (Homo sapiens) = CELF6 (Homo sapiens) (UniProt Q96J87)
Chain of CELF6 (Homo sapiens) (Q96J87 whole entry): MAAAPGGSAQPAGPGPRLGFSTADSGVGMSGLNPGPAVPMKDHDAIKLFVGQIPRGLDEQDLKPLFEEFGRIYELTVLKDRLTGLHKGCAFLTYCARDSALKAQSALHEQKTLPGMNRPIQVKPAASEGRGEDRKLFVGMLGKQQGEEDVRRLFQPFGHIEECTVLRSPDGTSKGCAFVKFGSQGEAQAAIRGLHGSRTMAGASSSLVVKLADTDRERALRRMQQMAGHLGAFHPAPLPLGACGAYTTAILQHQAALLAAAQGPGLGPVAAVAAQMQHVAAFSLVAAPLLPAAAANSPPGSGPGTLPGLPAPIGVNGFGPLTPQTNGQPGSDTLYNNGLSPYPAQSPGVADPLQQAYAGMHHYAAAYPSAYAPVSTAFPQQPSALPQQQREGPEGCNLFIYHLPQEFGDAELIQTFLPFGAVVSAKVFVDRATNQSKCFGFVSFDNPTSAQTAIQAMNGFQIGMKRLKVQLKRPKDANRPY

[7] = molecular target: T12, asd-1 (Caenorhabditis elegans) (UniProt A1BPT6)
T12 sequence: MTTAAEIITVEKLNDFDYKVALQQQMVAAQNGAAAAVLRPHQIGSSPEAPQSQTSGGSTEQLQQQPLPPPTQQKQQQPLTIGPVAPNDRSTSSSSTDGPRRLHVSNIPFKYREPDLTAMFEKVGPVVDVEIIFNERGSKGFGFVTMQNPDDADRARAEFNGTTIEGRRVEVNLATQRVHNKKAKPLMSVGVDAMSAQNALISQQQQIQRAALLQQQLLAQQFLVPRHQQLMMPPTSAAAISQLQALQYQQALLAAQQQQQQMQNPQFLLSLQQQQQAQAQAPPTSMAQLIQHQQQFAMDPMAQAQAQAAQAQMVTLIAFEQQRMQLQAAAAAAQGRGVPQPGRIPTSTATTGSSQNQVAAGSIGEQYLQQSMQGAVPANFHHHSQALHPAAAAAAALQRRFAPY

[8] = molecular target: T13, MAL8P1.40 (Plasmodium falciparum) (UniProt Q8IB66)
T13 sequence: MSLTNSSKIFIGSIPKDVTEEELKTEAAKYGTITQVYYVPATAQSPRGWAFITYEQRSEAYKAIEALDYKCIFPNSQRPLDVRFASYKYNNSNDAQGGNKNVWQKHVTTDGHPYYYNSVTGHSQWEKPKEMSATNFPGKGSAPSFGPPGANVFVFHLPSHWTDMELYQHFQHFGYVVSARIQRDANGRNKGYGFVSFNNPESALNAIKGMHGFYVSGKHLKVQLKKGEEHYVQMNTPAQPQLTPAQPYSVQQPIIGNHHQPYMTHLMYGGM

HNRNPCL1 (Homo sapiens) = HNRNPCL1 (Homo sapiens) (UniProt O60812)
Chain of HNRNPCL1 (Homo sapiens) (O60812 1-131): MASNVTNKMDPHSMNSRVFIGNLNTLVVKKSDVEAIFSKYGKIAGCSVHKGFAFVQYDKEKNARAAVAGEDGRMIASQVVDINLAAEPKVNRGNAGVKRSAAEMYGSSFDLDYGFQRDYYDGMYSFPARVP

IGF2BP3 (Homo sapiens) = IGF2BP3 (Homo sapiens) (UniProt O00425)
Chain of IGF2BP3 (Homo sapiens) (O00425 whole entry): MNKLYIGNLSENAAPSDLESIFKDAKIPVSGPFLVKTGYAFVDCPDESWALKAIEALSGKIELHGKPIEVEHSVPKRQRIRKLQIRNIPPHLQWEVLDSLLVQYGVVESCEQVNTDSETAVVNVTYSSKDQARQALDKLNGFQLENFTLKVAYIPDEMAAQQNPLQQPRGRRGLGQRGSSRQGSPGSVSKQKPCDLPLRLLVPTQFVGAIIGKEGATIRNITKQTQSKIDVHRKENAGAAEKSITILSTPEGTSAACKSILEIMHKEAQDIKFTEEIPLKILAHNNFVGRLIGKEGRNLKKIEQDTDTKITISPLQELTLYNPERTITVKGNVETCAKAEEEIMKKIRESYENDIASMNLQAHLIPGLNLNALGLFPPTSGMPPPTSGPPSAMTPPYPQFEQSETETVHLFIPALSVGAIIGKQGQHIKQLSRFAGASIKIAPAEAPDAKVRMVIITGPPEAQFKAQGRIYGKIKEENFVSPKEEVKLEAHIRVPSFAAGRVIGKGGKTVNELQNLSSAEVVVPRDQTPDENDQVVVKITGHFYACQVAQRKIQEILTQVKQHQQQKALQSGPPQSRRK

UGCAUG [RNAcompete motif RNCMPT00168]
binding signal (z-score (mean of top ten 7-mers)) (A2BP1 (Homo sapiens)): 23.3

AGCACA [RNAcompete motif RNCMPT00181]
binding signal (z-score (mean of top ten 7-mers)) [1]: 8.36

UUAAGUU [RNAcompete motif RNCMPT00014]
binding signal (z-score (mean of top ten 7-mers)) [2]: 13.7

GUGUGUG [RNAcompete motif RNCMPT00166]
binding signal (z-score (mean of top ten 7-mers)) (CELF5 (Homo sapiens)): 9.48

UAGGUAG [RNAcompete motif RNCMPT00013]
binding signal (z-score (mean of top ten 7-mers)) (DAZAP1 (Homo sapiens)): 7.92

GUGUGA [RNAcompete motif RNCMPT00184]
binding signal (z-score (mean of top ten 7-mers)) (RBM24 (Homo sapiens)): 10.6

GGAGGA [RNAcompete motif RNCMPT00199]
binding signal (z-score (mean of top ten 7-mers)) [3]: 8.55

UGUGUG [RNAcompete motif RNCMPT00416]
binding signal (z-score (mean of top ten 7-mers)) [4]: 10.8

AGAAANU [RNAcompete motif RNCMPT00171]
binding signal (z-score (mean of top ten 7-mers)) (PABPC5 (Homo sapiens)): 7.11

AUAAAAG [RNAcompete motif RNCMPT00169]
binding signal (z-score (mean of top ten 7-mers)) (KHDRBS1 (Homo sapiens)): 9.86

GUGUGUU [RNAcompete motif RNCMPT00183]
binding signal (z-score (mean of top ten 7-mers)) [5]: 8.98

UAUAUA [RNAcompete motif RNCMPT00182]
binding signal (z-score (mean of top ten 7-mers)) [6]: 6.85

AUAAA [RNAcompete motif RNCMPT00185]
binding signal (z-score (mean of top ten 7-mers)) (KHDRBS2 (Homo sapiens)): 8.2

ACANACA [RNAcompete motif RNCMPT00178]
binding signal (z-score (mean of top ten 7-mers)) (HNRNPLL (Homo sapiens)): 9.56

CCNANCC [RNAcompete motif RNCMPT00186]
binding signal (z-score (mean of top ten 7-mers)) (PCBP1 (Homo sapiens)): 6.42

UGUGGUG [RNAcompete motif RNCMPT00187]
binding signal (z-score (mean of top ten 7-mers)) (CELF6 (Homo sapiens)): 7.27

UGCAUGA [RNAcompete motif RNCMPT00180]
binding signal (z-score (mean of top ten 7-mers)) [7]: 20.3

AUACAUG [RNAcompete motif RNCMPT00197]
binding signal (z-score (mean of top ten 7-mers)) [8]: 14.8

UUUUUU [RNAcompete motif RNCMPT00167]
binding signal (z-score (mean of top ten 7-mers)) (HNRNPCL1 (Homo sapiens)): 18.4

AACAA [RNAcompete motif RNCMPT00172]
binding signal (z-score (mean of top ten 7-mers)) (IGF2BP3 (Homo sapiens)): 6.02
